As usually defined, the Kd is the free concentration of one partner at which half of the binding sites on the other are occupied at equilibrium, for simple one-to-one binding. As a reminder, the kon is a measure of how fast the partners come together. As usually defined, the koff is a measure of how fast the partners let go of each other.

Experimental findings from patent US20120253008A1 (Ablynx, published 2012) are described below.

B1: 2D3-9GS-56E4-MycHis (other)
chain: EVQLVESGGSLVQPGGSLRLSCAASGFTFDDYAMSWVRQVPGKGLEWVSSINWSGTHTDYADSVKGRFTISRNNANNTLYLQMNSLKSEDTAVYYCAKNWRDAGTTWFEKSGSAGQGTQVTVSSGGGGSGGGSAAARYWDYDVFGGGTPVGGAAAEQKLISEEDLNGAAHHHHHH
B2: 2D3-9GS-59F2-MycHis (other)
chain: EVQLVESGGSLVQPGGSLRLSCAASGFTFDDYAMSWVRQVPGKGLEWVSSINWSGTHTDYADSVKGRFTISRNNANNTLYLQMNSLKSEDTAVYYCAKNWRDAGTTWFEKSGSAGQGTQVTVSSGGGGSGGGSAAARYWDFDVFGGGTPVGGAAAEQKLISEEDLNGAAHHHHHH
B3: 2D3-9GS-59C2-MycHis (other)
chain: EVQLVESGGSLVQPGGSLRLSCAASGFTFDDYAMSWVRQVPGKGLEWVSSINWSGTHTDYADSVKGRFTISRNNANNTLYLQMNSLKSEDTAVYYCAKNWRDAGTTWFEKSGSAGQGTQVTVSSGGGGSGGGSAAARDWDFDVFGGGTPVGGAAAEQKLISEEDLNGAAHHHHHH
B4: 2D3-9GS-59H12-MycHis (other)
chain: EVQLVESGGSLVQPGGSLRLSCAASGFTFDDYAMSWVRQVPGKGLEWVSSINWSGTHTDYADSVKGRFTISRNNANNTLYLQMNSLKSEDTAVYYCAKNWRDAGTTWFEKSGSAGQGTQVTVSSGGGGSGGGSAAARSWDFDVFGGGTPVGGAAAEQKLISEEDLNGAAHHHHHH
B5: 12A2 sv1-AAA-12A2 sv1-9GS-59C2-9GS-59C2 (VHH)
chain: DVQLVESGGGLVQPGGSLRLSCAASGRTFSYNPMGWFRQAPGKGRELVAAISRTGGSTYYPESVEGRFTISRDNAKRTVYLQMNSLRAEDTAVYYCAAAGVRAEQGRVRTLPSEYTFWGQGTQVTVSSAAAEVQLVESGGGLVQPGGSLRLSCAASGRTFSYNPMGWFRQAPGKGRELVAAISRTGGSTYYPESVEGRFTISRDNAKRTVYLQMNSLRAEDTAVYYCAAAGVRAEQGRVRTLPSEYTFWGQGTQVTVSSGGGGSGGGSRDWDFDVFGGGTPVGGGGGGSGGGSRDWDFDVFGGGTPVGG
notes: also called vWF-0056; VWF0056
B6: 12A2 sv1-9GS-59C2-9GS-12A2 sv1 (VHH)
chain: DVQLVESGGGLVQPGGSLRLSCAASGRTFSYNPMGWFRQAPGKGRELVAAISRTGGSTYYPESVEGRFTISRDNAKRTVYLQMNSLRAEDTAVYYCAAAGVRAEQGRVRTLPSEYTFWGQGTQVTVSSGGGGSGGGSRDWDFDVFGGGTPVGGGGGGSGGGSEVQLVESGGGLVQPGGSLRLSCAASGRTFSYNPMGWFRQAPGKGRELVAAISRTGGSTYYPESVEGRFTISRDNAKRTVYLQMNSLRAEDTAVYYCAAAGVRAEQGRVRTLPSEYTFWGQGTQVTVSS
notes: also called vWF-0053; vWF 0053
B7: vWF0054 (VHH)
single chain fusion protein: DVQLVESGGGLVQPGGSLRLSCAASGRTFSYNPMGWFRQAPGKGRELVAAISRTGGSTYYPESVEGRFTISRDNAKRTVYLQMNSLRAEDTAVYYCAAAGVRAEQGRVRTLPSEYTFWGQGTQVTVSSGGGGSGGGSRDWDFDVFGGGTPVGGGGGGSGGGSRDWDFDVFGGGTPVGGGGGGSGGGSEVQLVESGGGLVQPGGSLRLSCAASGRTFSYNPMGWFRQAPGKGRELVAAISRTGGSTYYPESVEGRFTISRDNAKRTVYLQMNSLRAEDTAVYYCAAAGVRAEQGRVRTLPSEYTFWGQGTQVTVSS
notes: also called 12A2 sv1-9GS-59C2-9GS-59C2-9GS-12A2 sv1
B8: 12A2_sv1-AAA-12A2_sv1 (VHH)
chain: DVQLVESGGGLVQPGGSLRLSCAASGRTFSYNPMGWFRQAPGKGRELVAAISRTGGSTYYPESVEGRFTISRDNAKRTVYLQMNSLRAEDTAVYYCAAAGVRAEQGRVRTLPSEYTFWGQGTQVTVSSAAAEVQLVESGGGLVQPGGSLRLSCAASGRTFSYNPMGWFRQAPGKGRELVAAISRTGGSTYYPESVEGRFTISRDNAKRTVYLQMNSLRAEDTAVYYCAAAGVRAEQGRVRTLPSEYTFWGQGTQVTVSS
notes: also called vWF-001; vWF-0001

One assay deals with T1, cynomolgus monkey serum albumin (cynomolgus monkey, UniProt A2V9Z4 25-608).
T1 construct: amine-coupled to a CM5 chip; also called CSA; cynoSA
T1 sequence (A2V9Z4 25-608 limits assumed): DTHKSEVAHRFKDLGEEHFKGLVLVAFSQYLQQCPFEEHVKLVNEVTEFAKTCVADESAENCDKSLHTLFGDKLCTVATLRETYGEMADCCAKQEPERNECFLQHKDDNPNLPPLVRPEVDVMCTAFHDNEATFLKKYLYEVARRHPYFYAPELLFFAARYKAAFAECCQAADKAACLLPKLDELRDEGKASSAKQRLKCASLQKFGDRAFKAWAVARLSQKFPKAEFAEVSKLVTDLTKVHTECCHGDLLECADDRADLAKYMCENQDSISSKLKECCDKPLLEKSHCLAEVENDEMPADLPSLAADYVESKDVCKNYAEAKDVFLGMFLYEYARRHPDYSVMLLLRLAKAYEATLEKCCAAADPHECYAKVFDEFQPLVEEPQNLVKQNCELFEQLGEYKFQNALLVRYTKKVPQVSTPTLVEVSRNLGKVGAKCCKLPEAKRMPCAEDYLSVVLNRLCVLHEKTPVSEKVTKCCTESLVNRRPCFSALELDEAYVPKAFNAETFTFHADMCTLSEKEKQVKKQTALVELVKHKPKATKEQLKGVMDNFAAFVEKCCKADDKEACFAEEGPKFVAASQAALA
Put plainly: SPR, BIAcore 3000, CSA on CM5 chip. As to the method: (§1) For this purpose, binding to HSA and CSA was assessed in BIAcore™ 3000, by injecting concentration series of the fusion proteins ranging from 2 μM to 200 nM on a CM5 chip coated with ˜3000 RU HSA or CSA. Coating of the chip (CM5) was performed by amine coupling using NHS/EDC for activation and ethanolamine for deactivation (Biacore amine coupling kit). HBS-EP was used as flow buffer at a rate of […]. 90 μl of sample was injected for 120 s.
In general terms: Surface plasmon resonance follows binding to a sensor surface in real time, without labels.
As for B1, binding was put at a Kd of 2110 nM and the kon is 4010 M⁻¹ s⁻¹.

Consider B2, for which binding was put at a Kd of 1040 nM and the kon was found to be 4850 M⁻¹ s⁻¹. Molecule B3 gave a Kd of 775 nM and a kon of 2750 M⁻¹ s⁻¹.

B4 came in with a Kd of 1280 nM and a kon of 3450 M⁻¹ s⁻¹.

Another assay addresses T2, human serum albumin (human, UniProt P02768 25-609).
T2 construct: also called HSA
Put plainly: SPR, BIAcore 3000, HSA on CM5 chip. As to the method: as §1
Molecule B1 had a Kd of 991 nM, a koff of 0.00497 s⁻¹ and an on-rate (kon) of 5020 M⁻¹ s⁻¹. Regarding B2, the Kd worked out at 571 nM, the koff is 0.00351 s⁻¹ and the kon stood at 6140 M⁻¹ s⁻¹. In the same order, the values of B3 are 481 nM, 0.00179 s⁻¹ and 3730 M⁻¹ s⁻¹. In turn, B4 returned a Kd of 663 nM, a koff of 0.00304 s⁻¹ and an on-rate constant (kon) of 4590 M⁻¹ s⁻¹.

A further assay concerns the target T2, human serum albumin. The assay can be described thus: phage ELISA and/or solution binding competition ELISA on HSA.
On to AATYLDYDVFGGGTPDGR [PMP54E3], for which the binding result is “binds”. Take AASYRDYDVFGGGTPRGW [PMP54H3]: the binding result was “binds”. With AAFYMDYDVFGGGTPRGQ [PMP56A4], the binding result is given as “binds”. The same measure, in the same setting: then AATYYDYDVFGGGTPLGQ [PMP56D5], with “binds”; and AAFYRDYDVFGGGTGSGN [PMP54E1], with “binds”; and AAIYRDYDVFGGGTPLGQ [PMP54G2], with “binds”. For the molecule AARYYDYDVFGGGTVVGE [PMP54B2], the binding result was “binds”.

A further assay addresses T3, von Willebrand factor (human, UniProt P04275 764-2813).
T3 construct: vWF of the human plasma in which the compounds were diluted; multimeric; also called vWF; VWF
The assay can be described thus: inhibition ELISA: ristocetin-induced binding of plasma vWF to fixed human platelets (glycoprotein Ib), bound vWF detected with anti-VWF-HRP. For orientation: In an ELISA, binding on a coated surface is turned into a signal by an enzyme label.
Regarding B5, the “IC50 (read off the curve)” value is roughly 20 nM. Regarding B6, the binding result is reported as “binds”.

Consider B7, for which the binding result is “binds”.

In the case of B8, the “IC50 (read off the curve)” value is roughly 10 nM.

The target of the next assay is T2, human serum albumin. Put plainly: phage ELISA, phage titration on coated HSA, near-infrared fluorescence. As to the method:
5-fold serial dilutions of phage clones (starting from ˜5×10¹¹ phage) were added to 96-well Nunc Maxisorp plates coated with human serum albumin (2 μg/ml in PBS, overnight at 4° C.; plates were blocked with Superblock T20 (Pierce) for 1 h at room temperature). […] The amount of IRDye bound was measured on Odyssey (LI-COR Biosciences). The dilution of phage was plotted against measured near-infrared fluorescence intensity (FIG. 2).
After respectively three and four selection rounds, monoclonal phage were screened for binding on HSA, in the manner described in Example 2. Clones that bind to HSA (FIGS. 7A to 7C and Table V) were screened in phage competition ELISA, in the manner described in Example 5. The ratio of phage binding was calculated by the following equation: fluorescence signal of well with 2 μM competitor/fluorescence signal of well with no competitor (Table VI).
For the molecule AARWWDYDVFGGGTPVGG [59A5], the binding result was “binds”.

With AARYWDYDVFGGGTPVDG [60E6], the binding result is recorded as “binds”. On the same count and under the same terms, then AARYWDYDVFGGGSQVGG [60F1], with “binds”. AARYWDWDVFGGGTPVGG [59C8]: the binding result is given as “binds”. Still for that read-out and setting: then AARYWDFDVFGGGSPVGG [59H10], with “binds”. On the same count and under the same terms, then AARYWDFDAFGGGTPVGG [59B3], with “binds”; and AARYWDYDVFGGGSPVGG [60G5], with “binds”. As for AARFWDYDVFGGGTPVGG [59B2], the binding result is “binds”.
